Columns and labels:
Assay in all cases: Kinase Profiling Assay
Format in all cases: biochemical
Settings in all cases: 100 μM
PASK(h) = PASK(h) (Homo sapiens, UniProt Q96RG2)
MAPKAP-K2(h) = MAPKAP-K2(h) (Homo sapiens, UniProt P49137)
PKCγ(h) = PKCγ(h) (Homo sapiens, UniProt P05129)
MAPK2(h) = MAPK2(h) (Homo sapiens, UniProt P28482)
EphA2(h) = EphA2(h) (Homo sapiens, UniProt P29317)
Abl(T315I)(h) = Abl(T315I)(h) (Homo sapiens, UniProt P00519, T315I)
CHK2(R145W)(h) = CHK2(R145W)(h) (Homo sapiens, UniProt O96017, R145W)
Chain of CHK2(R145W)(h) (O96017 whole entry R145W): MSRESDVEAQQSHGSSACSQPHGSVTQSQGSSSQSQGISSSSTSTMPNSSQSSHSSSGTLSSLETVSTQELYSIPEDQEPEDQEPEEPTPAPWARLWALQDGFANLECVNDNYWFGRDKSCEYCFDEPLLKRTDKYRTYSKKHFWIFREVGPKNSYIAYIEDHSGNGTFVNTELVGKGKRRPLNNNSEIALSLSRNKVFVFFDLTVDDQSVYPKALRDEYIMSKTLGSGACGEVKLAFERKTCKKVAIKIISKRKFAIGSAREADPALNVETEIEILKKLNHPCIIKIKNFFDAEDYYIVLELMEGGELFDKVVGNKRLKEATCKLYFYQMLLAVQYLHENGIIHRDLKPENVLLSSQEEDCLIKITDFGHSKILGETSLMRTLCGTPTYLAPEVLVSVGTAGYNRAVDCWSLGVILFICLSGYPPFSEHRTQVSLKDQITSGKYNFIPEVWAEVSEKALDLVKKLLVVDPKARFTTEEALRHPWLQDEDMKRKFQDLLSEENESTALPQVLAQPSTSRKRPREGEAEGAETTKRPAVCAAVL

TAO3(h) = target: T1, TAO3(h) (Homo sapiens, UniProt Q9H2K8)
T1 sequence (Q9H2K8 1-898): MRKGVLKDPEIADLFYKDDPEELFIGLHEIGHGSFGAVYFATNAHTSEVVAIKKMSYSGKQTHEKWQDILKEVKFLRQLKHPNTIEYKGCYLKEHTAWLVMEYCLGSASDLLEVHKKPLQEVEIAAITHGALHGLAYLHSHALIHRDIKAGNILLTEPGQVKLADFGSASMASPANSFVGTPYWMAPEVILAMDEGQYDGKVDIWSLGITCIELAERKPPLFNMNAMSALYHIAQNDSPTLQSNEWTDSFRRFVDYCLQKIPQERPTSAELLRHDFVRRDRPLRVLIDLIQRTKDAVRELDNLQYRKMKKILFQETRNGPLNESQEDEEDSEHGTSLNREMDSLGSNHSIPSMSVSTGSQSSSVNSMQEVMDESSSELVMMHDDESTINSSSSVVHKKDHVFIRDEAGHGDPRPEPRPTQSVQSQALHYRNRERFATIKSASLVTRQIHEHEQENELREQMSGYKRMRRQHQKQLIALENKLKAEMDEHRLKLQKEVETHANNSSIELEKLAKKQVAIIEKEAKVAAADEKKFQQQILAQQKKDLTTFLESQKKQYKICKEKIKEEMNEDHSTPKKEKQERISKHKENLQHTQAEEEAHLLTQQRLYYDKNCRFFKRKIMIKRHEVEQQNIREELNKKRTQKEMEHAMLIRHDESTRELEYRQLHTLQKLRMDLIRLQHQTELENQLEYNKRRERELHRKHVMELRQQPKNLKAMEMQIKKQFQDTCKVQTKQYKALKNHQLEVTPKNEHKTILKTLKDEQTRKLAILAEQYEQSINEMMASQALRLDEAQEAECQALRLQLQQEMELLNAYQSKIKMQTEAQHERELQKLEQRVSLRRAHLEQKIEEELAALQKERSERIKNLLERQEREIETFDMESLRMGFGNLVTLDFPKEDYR

CaMKIV(h) = target: T2, CaMKIV(h) (Homo sapiens, UniProt Q16566)
T2 sequence (Q16566 1-473): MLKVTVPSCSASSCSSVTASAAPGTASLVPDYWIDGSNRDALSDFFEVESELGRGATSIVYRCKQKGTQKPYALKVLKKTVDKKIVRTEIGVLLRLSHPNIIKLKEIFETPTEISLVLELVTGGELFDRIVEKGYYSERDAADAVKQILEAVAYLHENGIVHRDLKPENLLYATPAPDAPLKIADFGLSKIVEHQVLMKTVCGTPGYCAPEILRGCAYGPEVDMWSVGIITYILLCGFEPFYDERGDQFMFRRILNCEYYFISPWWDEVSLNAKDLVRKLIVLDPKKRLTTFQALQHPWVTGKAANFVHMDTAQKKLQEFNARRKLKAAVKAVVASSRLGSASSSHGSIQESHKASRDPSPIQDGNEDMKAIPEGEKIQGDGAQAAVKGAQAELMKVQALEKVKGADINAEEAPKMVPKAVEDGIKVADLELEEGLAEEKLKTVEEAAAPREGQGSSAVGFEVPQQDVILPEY

Abl (Q252H) (h) = Abl (Q252H) (h) (Homo sapiens, UniProt P00519, Q252H)
BTK(R28H)(h) = BTK(R28H)(h) (Homo sapiens, UniProt Q06187, R28H)
HIPK2(h) = HIPK2(h) (Homo sapiens, UniProt Q9H2X6)
MSSK1(h) = MSSK1(h) (Homo sapiens, UniProt Q9UPE1)
AMPKα1(h) = AMPKα1(h) (Homo sapiens, UniProt Q13131)
ROCK-II(h) = ROCK-II(h) (Homo sapiens, UniProt O75116)
TrkB(h) = TrkB(h) (Homo sapiens, UniProt Q16620)
Fgr(h) = Fgr(h) (Homo sapiens, UniProt P09769)
Plk3(h) = Plk3(h) (Homo sapiens, UniProt Q9H4B4)
mTOR/FKBP12(h) = mTOR/FKBP12(h) (Homo sapiens, UniProt P42345)
Chain of mTOR/FKBP12(h) (P42345 1362-2549 limits assumed): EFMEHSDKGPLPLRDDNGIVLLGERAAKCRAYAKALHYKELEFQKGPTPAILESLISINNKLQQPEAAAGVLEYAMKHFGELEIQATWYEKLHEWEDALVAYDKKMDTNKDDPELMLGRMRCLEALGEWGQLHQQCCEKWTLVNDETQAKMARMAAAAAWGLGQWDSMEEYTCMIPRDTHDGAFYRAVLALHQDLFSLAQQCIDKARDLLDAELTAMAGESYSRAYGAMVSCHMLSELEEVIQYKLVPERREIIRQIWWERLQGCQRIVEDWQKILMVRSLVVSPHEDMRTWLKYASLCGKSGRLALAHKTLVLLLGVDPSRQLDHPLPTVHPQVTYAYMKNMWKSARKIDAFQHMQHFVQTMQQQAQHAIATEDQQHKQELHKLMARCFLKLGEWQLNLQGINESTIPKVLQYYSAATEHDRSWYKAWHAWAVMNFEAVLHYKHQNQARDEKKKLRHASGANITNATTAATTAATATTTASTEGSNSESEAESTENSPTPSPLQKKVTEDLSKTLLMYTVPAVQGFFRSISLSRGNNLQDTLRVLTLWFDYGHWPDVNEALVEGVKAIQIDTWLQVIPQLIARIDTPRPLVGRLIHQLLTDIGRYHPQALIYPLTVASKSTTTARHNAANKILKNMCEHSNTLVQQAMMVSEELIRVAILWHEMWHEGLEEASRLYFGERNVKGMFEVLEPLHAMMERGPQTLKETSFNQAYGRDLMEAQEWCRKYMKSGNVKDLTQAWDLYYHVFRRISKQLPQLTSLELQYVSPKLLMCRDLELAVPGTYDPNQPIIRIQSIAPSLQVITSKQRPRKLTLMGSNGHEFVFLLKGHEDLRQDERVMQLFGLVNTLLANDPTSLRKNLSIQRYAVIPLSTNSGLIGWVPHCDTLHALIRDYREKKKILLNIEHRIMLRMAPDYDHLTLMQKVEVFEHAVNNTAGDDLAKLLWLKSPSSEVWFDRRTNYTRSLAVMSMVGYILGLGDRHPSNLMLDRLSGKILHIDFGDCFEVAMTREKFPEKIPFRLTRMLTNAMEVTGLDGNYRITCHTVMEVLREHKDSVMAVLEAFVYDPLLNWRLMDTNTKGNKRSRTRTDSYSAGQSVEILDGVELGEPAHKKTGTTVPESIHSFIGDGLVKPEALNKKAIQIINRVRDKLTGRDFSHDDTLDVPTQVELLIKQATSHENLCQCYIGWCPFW

Hck(h) = Hck(h) (Homo sapiens, UniProt P08631)
MSK2(h) = MSK2(h) (Homo sapiens, UniProt O75676)
Chain of MSK2(h) (O75676 whole entry): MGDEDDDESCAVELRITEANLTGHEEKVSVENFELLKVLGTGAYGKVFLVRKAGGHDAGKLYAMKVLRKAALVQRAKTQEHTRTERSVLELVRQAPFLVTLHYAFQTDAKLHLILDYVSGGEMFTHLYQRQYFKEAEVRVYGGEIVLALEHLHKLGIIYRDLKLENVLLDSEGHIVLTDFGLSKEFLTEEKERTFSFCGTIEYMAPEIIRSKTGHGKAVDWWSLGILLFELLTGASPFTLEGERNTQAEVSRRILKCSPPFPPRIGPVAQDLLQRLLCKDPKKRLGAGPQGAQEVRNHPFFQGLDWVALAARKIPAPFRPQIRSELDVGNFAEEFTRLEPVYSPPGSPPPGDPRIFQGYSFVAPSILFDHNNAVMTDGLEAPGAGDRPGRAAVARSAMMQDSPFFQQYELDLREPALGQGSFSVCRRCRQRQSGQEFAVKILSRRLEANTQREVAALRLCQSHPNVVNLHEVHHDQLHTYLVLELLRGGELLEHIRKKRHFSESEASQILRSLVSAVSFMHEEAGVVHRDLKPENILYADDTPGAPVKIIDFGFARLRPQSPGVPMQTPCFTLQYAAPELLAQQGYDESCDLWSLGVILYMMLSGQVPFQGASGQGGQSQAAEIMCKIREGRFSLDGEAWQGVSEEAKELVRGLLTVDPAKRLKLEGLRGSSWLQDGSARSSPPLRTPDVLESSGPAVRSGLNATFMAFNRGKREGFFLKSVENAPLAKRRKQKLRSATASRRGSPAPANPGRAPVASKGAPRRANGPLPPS

CDK2/cyclinA(h) = CDK2/cyclinA(h) (Homo sapiens, UniProt P24941)

Chain of MAPKAP-K2(h) (P49137 whole entry): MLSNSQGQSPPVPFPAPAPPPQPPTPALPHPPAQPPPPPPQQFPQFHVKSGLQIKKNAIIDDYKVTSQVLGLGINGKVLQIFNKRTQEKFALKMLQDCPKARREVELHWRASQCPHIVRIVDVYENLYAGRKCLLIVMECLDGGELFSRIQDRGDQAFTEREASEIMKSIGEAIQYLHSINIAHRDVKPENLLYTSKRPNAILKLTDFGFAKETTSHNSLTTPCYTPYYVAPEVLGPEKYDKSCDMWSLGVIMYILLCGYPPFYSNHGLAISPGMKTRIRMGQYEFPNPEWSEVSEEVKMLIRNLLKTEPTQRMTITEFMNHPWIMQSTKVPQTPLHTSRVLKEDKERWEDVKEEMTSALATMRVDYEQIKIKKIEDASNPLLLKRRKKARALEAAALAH
Chain of PASK(h) (Q96RG2 whole entry): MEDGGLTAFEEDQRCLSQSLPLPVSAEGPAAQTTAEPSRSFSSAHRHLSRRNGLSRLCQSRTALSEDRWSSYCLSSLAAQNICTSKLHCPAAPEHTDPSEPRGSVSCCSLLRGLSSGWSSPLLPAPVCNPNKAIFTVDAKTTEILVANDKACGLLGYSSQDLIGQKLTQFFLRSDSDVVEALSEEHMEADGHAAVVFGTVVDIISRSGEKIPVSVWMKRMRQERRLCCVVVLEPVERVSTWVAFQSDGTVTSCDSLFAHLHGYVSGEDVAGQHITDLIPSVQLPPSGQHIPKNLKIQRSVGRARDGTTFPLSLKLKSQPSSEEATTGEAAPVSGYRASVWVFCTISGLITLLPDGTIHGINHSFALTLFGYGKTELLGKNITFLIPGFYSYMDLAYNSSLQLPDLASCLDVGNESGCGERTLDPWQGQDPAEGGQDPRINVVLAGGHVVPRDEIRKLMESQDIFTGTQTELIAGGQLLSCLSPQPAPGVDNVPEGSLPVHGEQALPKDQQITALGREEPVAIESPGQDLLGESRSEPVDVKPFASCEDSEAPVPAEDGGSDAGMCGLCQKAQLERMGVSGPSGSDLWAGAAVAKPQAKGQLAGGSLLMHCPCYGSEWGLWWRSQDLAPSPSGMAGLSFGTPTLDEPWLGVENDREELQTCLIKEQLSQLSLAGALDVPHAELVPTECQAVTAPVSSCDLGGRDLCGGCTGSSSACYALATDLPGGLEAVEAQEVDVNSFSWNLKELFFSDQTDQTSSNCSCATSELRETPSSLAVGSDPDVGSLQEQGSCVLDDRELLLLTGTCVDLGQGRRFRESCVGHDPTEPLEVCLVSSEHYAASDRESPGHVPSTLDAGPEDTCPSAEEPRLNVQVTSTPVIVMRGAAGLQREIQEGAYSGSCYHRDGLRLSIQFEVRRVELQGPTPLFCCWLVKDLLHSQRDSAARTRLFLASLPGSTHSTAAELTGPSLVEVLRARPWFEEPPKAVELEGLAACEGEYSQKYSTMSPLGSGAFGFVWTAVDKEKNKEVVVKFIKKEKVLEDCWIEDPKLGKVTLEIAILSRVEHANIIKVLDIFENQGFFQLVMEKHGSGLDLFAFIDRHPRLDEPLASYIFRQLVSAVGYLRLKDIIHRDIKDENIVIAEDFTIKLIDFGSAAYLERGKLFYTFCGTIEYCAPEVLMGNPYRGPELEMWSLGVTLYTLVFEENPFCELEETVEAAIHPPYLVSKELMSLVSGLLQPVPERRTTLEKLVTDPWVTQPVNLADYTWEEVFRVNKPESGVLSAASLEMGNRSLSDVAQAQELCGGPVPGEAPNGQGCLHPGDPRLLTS

FAKLAARLYRKALARQLGVAA [MMI-0300] was tested, and the “% activity” value (PASK(h)) was 29%, the “% activity” value (MAPKAP-K2(h)) was 5% and the “% activity” value (PKCγ(h)) was 89%. For the same sequence, the “% activity” value (MAPK2(h)) was 98%, the “% activity” value (EphA2(h)) was 31% and the “% activity” value (Abl(T315I)(h)) was 97%. For the same sequence, the “% activity” value (CHK2(R145W)(h)) was 33%, the “% activity” value (TAO3(h)) was 77% and the “% activity” value (CaMKIV(h)) was 17%. The “% activity” value (Abl (Q252H) (h)) was 82%, the “% activity” value (BTK(R28H)(h)) was 74% and the “% activity” value (HIPK2(h)) was 73%. For the same sequence, the “% activity” value (MSSK1(h)) was 77%, the “% activity” value (AMPKα1(h)) was 71% and the “% activity” value (ROCK-II(h)) was 74%. The “% activity” value (TrkB(h)) was 5%, the “% activity” value (Fgr(h)) was 60% and the “% activity” value (Plk3(h)) was 127%. For the same sequence, the “% activity” value (mTOR/FKBP12(h)) was 145%, the “% activity” value (Hck(h)) was 72% and the “% activity” value (MSK2(h)) was 56%. For the same sequence, the “% activity” value (CDK2/cyclinA(h)) was 86%.
With KAFAKLAARLYRKALARQLGVAA [MMI-0400] the “% activity” value (PASK(h)) was 28%, the “% activity” value (MAPKAP-K2(h)) was 5% and the “% activity” value (PKCγ(h)) was 79%. The “% activity” value (MAPK2(h)) was 93%, the “% activity” value (EphA2(h)) was 17% and the “% activity” value (CHK2(R145W)(h)) was 31%. For the same sequence, the “% activity” value (TAO3(h)) was 67%, the “% activity” value (CaMKIV(h)) was 18% and the “% activity” value (Abl (Q252H) (h)) was 98%. For the same sequence, the “% activity” value (BTK(R28H)(h)) was 24%, the “% activity” value (HIPK2(h)) was 90% and the “% activity” value (MSSK1(h)) was 75%. The “% activity” value (AMPKα1(h)) was 87%, the “% activity” value (ROCK-II(h)) was 77% and the “% activity” value (TrkB(h)) was 8%. The “% activity” value (Fgr(h)) was 47%, the “% activity” value (Plk3(h)) was 129% and the “% activity” value (mTOR/FKBP12(h)) was 125%. For the same sequence, the “% activity” value (Hck(h)) was 72%, the “% activity” value (MSK2(h)) was 52% and the “% activity” value (CDK2/cyclinA(h)) was 92%.
In the case of HRRIKAWLKKIKALARQLGVAA [MMI-0500], the “% activity” value (PASK(h)) is reported as 9%, the “% activity” value (MAPKAP-K2(h)) is reported as 9% and the “% activity” value (PKCγ(h)) is reported as 6%. The “% activity” value (MAPK2(h)) was 60%, the “% activity” value (Abl(T315I)(h)) was 16% and the “% activity” value (CHK2(R145W)(h)) was 3%. For the same sequence, the “% activity” value (TAO3(h)) was 12%, the “% activity” value (CaMKIV(h)) was −1% and the “% activity” value (Abl (Q252H) (h)) was 40%. The “% activity” value (BTK(R28H)(h)) was 10%, the “% activity” value (HIPK2(h)) was 38% and the “% activity” value (MSSK1(h)) was 22%. The “% activity” value (AMPKα1(h)) was 35%, the “% activity” value (ROCK-II(h)) was 2% and the “% activity” value (TrkB(h)) was 12%. For the same sequence, the “% activity” value (Plk3(h)) was 122%, the “% activity” value (mTOR/FKBP12(h)) was 140% and the “% activity” value (Hck(h)) was 78%. For the same sequence, the “% activity” value (MSK2(h)) was 14% and the “% activity” value (CDK2/cyclinA(h)) was 87%.
In the case of YARAAARQARAKALNRQLGVA [MMI-0200], the “% activity” value (PASK(h)) is reported as 60%, the “% activity” value (MAPKAP-K2(h)) is reported as 35% and the “% activity” value (PKCγ(h)) is reported as 101%. The “% activity” value (EphA2(h)) was 95%, the “% activity” value (Abl(T315I)(h)) was 108% and the “% activity” value (CHK2(R145W)(h)) was 81%. For the same sequence, the “% activity” value (CaMKIV(h)) was 71%, the “% activity” value (MSSK1(h)) was 100% and the “% activity” value (AMPKα1(h)) was 108%. For the same sequence, the “% activity” value (ROCK-II(h)) was 85%, the “% activity” value (TrkB(h)) was 7% and the “% activity” value (Fgr(h)) was 71%. The “% activity” value (mTOR/FKBP12(h)) was 118% and the “% activity” value (MSK2(h)) was 88%.

From patent publication US20190134153A1, “IMMUNOMODULATORY EFFECT OF INHALED KINASE INHIBITOR PEPTIDES IN LUNG” (MOERAE MATRIX, INC., priority 2017, published 2019)
